According to the DeepSol protein solubility set:

Assay: soluble on expression in E. coli; label from the status in PepcDB or PDB records

Sequence	soluble on expression in E. coli
MSLTDAPDLILHRGLFTTLDRSNPIASAVAISGGRFSAVGHDREVLPLAGPSTKVIDLKGRRVLPGLIDNHLHIIRGGLNFNMELRWDGVRSLADAMNMLKRQVAITPPPQWVRVVGGFTEHQFAEKRLPTIEELNAVAPDTPVFLLHLYDRAILNGAALRAVGYTRDTPEPPGGEITRDANGNPTGLLLAKPNANILYATLAKGPKLPFDYQVNSTRHFMRELNRLGVTGAIDAGGGFQNYPDDYAVIQKLDEEGLLTIRLAYNLFTQKPKGEKDDFLNWTKTSKYKQGNDYFRHNGAGEMLVFSAADFEDFRVPRPDMPPEMEGELEEVVRILVQNKWPWRLHATYDETISRALDVFEKVNQDTPLDGLHWFFDHAETISDRSIDRIAALGGGIAVQHRMAYQGEYFVERYGFGAAEATPPVRRILDSGVKVSAGTDATRVASYNPWVSLSWLVTGRTVGGLRITPQRNCLDRETALRMWTENVTWFSNEEGNKGRVAVGQLADVVVPDRDYFSCSEAEIADTTSLLTMVGGKVVYGAGEFAGLDDSEGHHHHHH	not soluble
AIARSEWPFDYASEADAMLHRITPENFEKLVRFAARLLRVGEIIALPTDTVYGLAAAARNSHGIELLYQTKQRDLRKPLAIAVPSVEDVSVYLHTEHLPPGLLEAILPGPLTLLLRQREDYVGIDLQDVRIDQYRGWERAKRLAPNLNLRRDGLLGVRVPDASFACAVSRELGDPLALTSANVSGRGDCGSVDEFRALWSACAAVFDGGAMPKPVMPSTVVDLSVPGTFRITRAGWMATDLVRILENKFGLTNKSANTSN	soluble
MGSDKIHHHHHHMVVRGRLKGVEAEFIDFHVHMPYWIRDPVKSCRRLLLEELTAGAISAVVIGVDASLETIKSRVTPREITEAAMEDFDYLAFQQVGYIGRMIMEPEKFLDDFLGDFHKHRRGPEDLRACRSVEPRFFYTIVSYKPGMEEEVAQIVRSDSSILGVKIFPTFHFTRPDSQRLYPVYKAVEEAGGLVVVHTGCDPGPWELTRFCREARPSYVARAAKRFENLVFVIAHLGAYSALKPGIYFEETLKALSLENVYADTSAADPFFAAMAVKEGYADKILFGSDYPYVSGYNVAMAVKDILSLDIDNNDKEAVLRYNAEKLLNSLPRGRQKPG	not soluble
MLETYDWNNKLTYLKNTRDLYYNDDYVSFLVNTVWKITKPVHIVDYGCGYGYLGLVLMPLLPEGSKYTGIDSGETLLAEARELFRLLPYDSEFLEGDATEIELNDKYDIAICHAFLLHMTTPETMLQKMIHSVKKGGKIICFEPHWISNMASYLLDGEKQSEFIQLGVLQKLFESDTQRNGKDGNIGMKIPIYLSELGVKNIECRVSDKVNFLDSNMHHNDKNDLYQSLKEEGIAGDPGDKQQFVERLIARGLTYDNALAQYEAELRFFKALHLHSSLVYAPNMKITFGEIECMAGDPLEHHHHHH	soluble
MGSDKIHHHHHHMKLRYIFYGLTSGLLFGLSSCSLNYDPIDTYSDVTEGVTDTGTKVVFKDKAAVESHLTTIYNQMRDRQEHWYVDLLLISDSHADNAYAGTTGAEVLPFENNSIEGSNSVLERDWNRYLEDVARANKLICNIDLVTDNSLTTAERAQYKAEAMIFRAMVMFDMVRLWGDFPVITTVADDITSENIEDVYEQYFPAQNTELEAYQQIEKDLLAAIQHAPDNTAGNKTLFTKSVARTLLAKIYAEKPLRDYSKVIRYCDEVKADGFELVKDFSDLFGMNAAGTDAKARNTKESILEAQFTPGSGNWCTWMFGRDLVNWNNNFTWAKWVTPSRDLINAFKKEGDQIRFQESVVYYDCNWSNYYPSDNYPFMYKCRSANSSIIKYRYADVLLLKAEALIMQDTPDLEAAAKIIDEVRERAGLGELSSSVRKDRDAMITALLNERRLELAFEGQRWFDLVRLDKVEEVMNAVYAKDSGRKSQVYAFDKNSYRLPIPQSVIDANDKIEQNPGY	not soluble
MGSDKIHHHHHHMVTQMLEGKKVAILVETEFIPEEIAAYRQHFEELGATVHFMSRLWGNETVQFVSDVDEIGKSLQYLDVNIDFQSVDVNEYAAVIMAANYTSVRLRYFQPPPGQQISPEQTRTAPAIQFFAQAMANHKIIKGLLCHGLWLLTPMPELLRGRKVICHEVVLADIANAGAVYVPPPVNSQPNDPGNIVVDRDLVTGRAGHDVYAFIDAIAHQIASQEQRCLETQRR	not soluble
MSFVVANTEFVSGAAGNLARLGSMISAANSAAAAQTTAVAAAGADEVSAAVAALFGAHGQTYQVLSAQAAAFHSQFVQALSGGAQAYAAAEATNFGPLQPLFDVINAPTLALLNRPLIGNGADGTAANPNGQAGGLLIGNGGNGFSPAAGPGGNGGAAGLLGHGGNGGVGALGANGGAGGTGGWLFGNGGAGGNSGGGGGAGGIGGSAVLFGAGGAGGISPNGMGAGGSGGNGGLFFGNGGAGASSFLGGGGAGGRAFLFGDGGAGGAALSAGSAGRGGDAGFFYGNGGAGGSGAGGASSAHGGAGGQAGLFGNGGEGGDGGALGGNGGNGGNAQLIGNGGDGGDGGGAGAPGLGGRGGLLLGLPGANGT	not soluble
EVLVTGYQTLSKERSTGAFSKVSTEKLELKRMDNLSSMLEGQVAGYVNGQIRGVTTMNAVANPMVVIDGFPVENTTLDRIGQTTENMPDLNPEDIESVTVLKDAAAASIYGARAANGVIVITTKKAK	not soluble
MGSHHHHHHRTPSDKPVAHVVANPQAEGQLQWLNRRANALLANGVELRDNQLVVPSEGLYLIYSQVLFKGQGCPSTHVLLTHTISRIAVSYQTKVNLLSAIKSPCQRETPEGAEAKPWYEPIYLGGVFQLEKGDRLSAEINRPDYLLFAESGQVYFGIIAL	soluble
MRRYASYPTYSSVHPVGLISRVSGASGIGCRMRRYASYPTYSSVHPVGLISRVSGASGIGCRMRRYASYPTYSSVHPVGLISHVSGASGIGCRMRRHPSYPTYSSVHLVGLISRVSDASGIGCRIQSTGVFYFTWLRANRLSSFSSYWLEHHHHHH	not soluble
GASCSGGDKSKAPVVSTADIENAAEVIKYYNTSLGVLKDMVKEKDVNAVLDYMEQKGKTPALSAIVPPAVVSKDSAIVLNPGNCFNEETRRNLKQNYTGLFQARTEFYANFDTYLSYLKKKDVTNAKKLLDVNYQLSTQMSEYKQNIFDILSPFTEQAELVLLVDNPLKAQIMSVRKMSSTMQSILNLYARKHRMDGPRIDLKVAELTKQLDAAKKLPVVNGHEGEMKSYQAFLSQVETFIKQVKKVREKGEYSDADYDMLTSAFETSII	soluble
MAHHHHHHMLGEGLDIGFYAEDAYAAYVTDLATSLHLVPHCRNARGATLEVVFTGPFHDLSAYEEAVKQGKLVPYAELPWPVAEERGVQGVSGATLSVTLHGWIEKLNAARKVQLMEPLFPAAELGATIAEICVMGDAGNSAPCAFASTSPPCVAESAGTSNEKGTHPSLKPSRFRILGSLDFLLHLSSRDWLMGESSVPADSPSADGRDEANPNFAVGADDATRAAHACRDALEQRDDVALARNAVNTVIKMAQMAEEHPGEVGSVFVDAKERVEYIQFSAQ	not soluble
DEGPLMMNAFEMITLSQGLNLSALFDRRQDFVKRQTRFVSRREPSEIIANIEAVANSMGFKSHTRNFKTRLEGLSSIKAGQLAVVIEIYEVAPSLFMVDVRKAAGETLEYHKFYKKLCSKLENIIWRATEGIPKSEILRTITF	soluble
MLIVLPPSETKAVGGKNPAIDFDSLHFPTLNPIRKEIAHDLARLDISQAQEILKLSQKLLPEAQRNIELFQSPTMPAVLRYTGVLYDALDATSLPSSTWEHLAIGSALFGVVMANDNIPHYRLSGTTKLPCADASVPTLKRRWGNAISTALSDTNEVILDLRSGTYQQLGKVKHAITVRVESEDSDGKRSVISHFNKHYKGQLARALLLHDVTPDPDHAIEDLIGMTQECGFAVEHSKPHELTVVITQ	not soluble
RQSVQTVLPESTGNNTLSLRDSVCRDLFQLFSSPHSPLPILLVSGMPEWQGHNQSDKLLQSWYCRQLRSALLFHEPRIAALQVNLKEAYCHELAISLEMMLYHDDEPLTFDLVWQKG	not soluble
STVKRKPVFVKVEQLKPGTTGHTLTVKVIEANIVVPVTRKTRPASSLSRPSQPSRIVECLIGDETGCILFTARNDQVDLMKPGATVILRNSRIDMFKGTMRLGVDKWGRIEATGAASFTVKEDNNLSLVEYE	soluble
MSIISTKYLLQDAQANGYAVPAFNIHNAETIQAILEVCSEMRSPVILAGTPGTFKHIALEEIYALCSAYSTTYNMPLALHLDHHESLDDIRRKVHAGVRSAMIDGSHFPFAENVKLVKSVVDFCHSQDCSVEAELGRLGGVEDDMSVDAESAFLTDPQEAKRFVELTGVDSLAVAIGTAHGLYSKTPKIDFQRLAEIREVVDVPLVLHGASDVPDEFVRRTIELGVTKVNVATELKIAFAGAVKAWFAENPQGNDPRYYMRVGMDAMKEVVRNKINVCGSANRISA	soluble
NPDGLSQEQLEHRERSLQTLRDIQRMLFPDEKEFTGAQSGGPQQNP	soluble
MESNFIDWHPADIIAGLRKKGTSMAAESRRNGLSSSTLANALSRPWPKGEMIIAKALGTDPWVIWPSRYHDPQTHEFIDRTQLMRSYTKPKK	soluble
MAHHHHHHMPAVADCTVVFPLRHDPASTHPDVSGLVGKAFERVNWRDAFDTFLAEERSALWAAKTAFDNTDTSAYIAARDALFPQAVSGVHGAVAFRNRAGHKLHETMEAVGLWEYLKGGATRAKGTFTFVDVCGGPGAFSQALFAMGKEHKLRLRGFGLTLRNVKGLDWYTDLPSRSFFPCYGIDGTGDVFKLENIESLCSLTCKENVRLVVADGGFDVPTEVVNFQETISCRIVYGQWLSAVKLLRPGGCFVLKLFDCFSPFTRAILFLTTHLYESVQVVKPRHSRVVNSERYLVCIGFIGAPKQWLEHFERCYQEGFVDNDNIPTVLPTSLFSGDKIFGADVERMSATIASNQVSGLHAILEKLQSKPAMEEVKS	not soluble
MIIATAGHVDHGKTTLLQAITGVNADRLPEEKKRGMTIDLGYAYWPQPDGRVLGFIDVPGHEKFLSNMLAGVGGIDHALLVVACDDGVMAQTREHLQILQLTGNLQLTVALTKADRVDEARIGEVREEVLAALDNYGFADTVLFVTAANEGRGIAELRAHLQQLPARSHAAQHRFRLAIDRAFTVKGAGLVVTGTALSGEVNVGDTLWLTGVNTPMRVRSLHAQNQPTDHAYAGQRIALNIAGDAEKEQLNRGDWLLSDAPVGEAFSRVIVSLALHAPLSQWQPLHIHHAASHVTGRVSLLEGGLAELIFDTPLWLADNDRLVLRDISARATLAGARVVTLKAPRRGKRKPDYLHWLSTLAAAQDDSAALAIHLERGAVNLPDFGWARQLNPLGMRQLIEQHGFIQAGDNLLSAPVAARWQRKILDTLATYHEQHRDEPGPGRERLRRMALPMEDEALVLMLIERMRDDGLIHSHHGWLHLPDHKAGFSDEQQAVWQKVEPLFGDEPWWVRDLAKETGTEEQLMRLVLRQAAQQGIITAIVKDRYYRNDRIVAFANMIRELDQERGSTCAADFRDRLNVGRKLAIQILEYFDRIGFTRRRGNDHLLRDALLFPQKE	not soluble
GSLVPELNEKDDDQVQKALASRENTQLMNRDNIEITVRDFKTLAPRRWLNDTIIEFFMKYIEKSTPNTVAFNSFFYTNLSERGYQGVRRWMKRKKTQIDKLDKIFTPINLNQSHWALGIIDLKKKTIGYVDSLSNGPNAMSFAILTDLQKYVMEESKHTIGEDFDLIHLDCPQQPNGYDCGIYVCMNTLYGSADAPLDFDYKDAIRMRRFIAHLILTDALK	soluble
